Consider 2 molecules from publication PMC6298560, “Staphylococcus aureus Cas9 is a multiple-turnover enzyme”.

For one series, the target named is T1, SauCas9 (Staphylococcus aureus, UniProt J7RUA5 1-1053).
T1 sequence: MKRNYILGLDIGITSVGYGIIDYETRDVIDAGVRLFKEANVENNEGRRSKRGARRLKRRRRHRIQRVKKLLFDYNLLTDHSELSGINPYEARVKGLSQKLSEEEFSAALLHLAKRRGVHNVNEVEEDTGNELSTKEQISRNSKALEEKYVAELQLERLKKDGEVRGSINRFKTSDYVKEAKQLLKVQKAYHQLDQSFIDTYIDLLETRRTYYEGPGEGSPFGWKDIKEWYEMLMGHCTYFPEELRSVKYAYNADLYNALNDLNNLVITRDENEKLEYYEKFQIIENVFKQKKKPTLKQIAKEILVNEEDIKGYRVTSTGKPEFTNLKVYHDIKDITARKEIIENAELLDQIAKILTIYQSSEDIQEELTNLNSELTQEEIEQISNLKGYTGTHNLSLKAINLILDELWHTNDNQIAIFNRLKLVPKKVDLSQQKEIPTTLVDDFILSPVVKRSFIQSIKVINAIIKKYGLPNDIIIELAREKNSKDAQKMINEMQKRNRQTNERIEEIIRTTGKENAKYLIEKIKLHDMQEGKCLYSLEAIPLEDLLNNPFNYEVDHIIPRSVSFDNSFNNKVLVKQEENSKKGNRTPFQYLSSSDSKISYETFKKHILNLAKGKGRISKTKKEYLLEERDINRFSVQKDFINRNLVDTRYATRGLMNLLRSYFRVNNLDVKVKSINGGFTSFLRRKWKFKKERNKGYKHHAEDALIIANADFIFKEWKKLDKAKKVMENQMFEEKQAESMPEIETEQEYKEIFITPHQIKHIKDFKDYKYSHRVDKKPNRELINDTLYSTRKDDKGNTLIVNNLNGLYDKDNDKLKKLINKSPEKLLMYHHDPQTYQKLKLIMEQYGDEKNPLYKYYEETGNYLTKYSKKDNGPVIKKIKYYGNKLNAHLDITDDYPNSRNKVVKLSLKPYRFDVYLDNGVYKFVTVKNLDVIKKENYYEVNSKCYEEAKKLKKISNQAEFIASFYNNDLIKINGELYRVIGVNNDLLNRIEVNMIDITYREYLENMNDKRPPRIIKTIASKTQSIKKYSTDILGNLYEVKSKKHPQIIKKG
The series can be described thus: EMSA; 10 mM Mg2+; EMSA: 1x NEBuffer 3.1 (100 mM NaCl, 50 mM Tris-HCl, 10 mM MgCl2, 100 ug/ml BSA, pH 7.9 at 25 C), 50 pM sgRNA, 40 min at 22 C, 6% native TBE gel in cold room. The following applies: protein: recombinant; label: 5'-32P; single guide RNA, GAAA tetraloop, two 3' stem-loops. (In general: Mobility shift assays separate free from complexed probe on a gel.)

The next series concerns the target SpyCas9 (Streptococcus pyogenes, UniProt Q99ZW2 1-1368). Described as above. To be noted: protein: recombinant; label: 5'-32P; single guide RNA, GAAA tetraloop, three 3' stem-loops.

Sequence of SpyCas9 (Q99ZW2 whole entry): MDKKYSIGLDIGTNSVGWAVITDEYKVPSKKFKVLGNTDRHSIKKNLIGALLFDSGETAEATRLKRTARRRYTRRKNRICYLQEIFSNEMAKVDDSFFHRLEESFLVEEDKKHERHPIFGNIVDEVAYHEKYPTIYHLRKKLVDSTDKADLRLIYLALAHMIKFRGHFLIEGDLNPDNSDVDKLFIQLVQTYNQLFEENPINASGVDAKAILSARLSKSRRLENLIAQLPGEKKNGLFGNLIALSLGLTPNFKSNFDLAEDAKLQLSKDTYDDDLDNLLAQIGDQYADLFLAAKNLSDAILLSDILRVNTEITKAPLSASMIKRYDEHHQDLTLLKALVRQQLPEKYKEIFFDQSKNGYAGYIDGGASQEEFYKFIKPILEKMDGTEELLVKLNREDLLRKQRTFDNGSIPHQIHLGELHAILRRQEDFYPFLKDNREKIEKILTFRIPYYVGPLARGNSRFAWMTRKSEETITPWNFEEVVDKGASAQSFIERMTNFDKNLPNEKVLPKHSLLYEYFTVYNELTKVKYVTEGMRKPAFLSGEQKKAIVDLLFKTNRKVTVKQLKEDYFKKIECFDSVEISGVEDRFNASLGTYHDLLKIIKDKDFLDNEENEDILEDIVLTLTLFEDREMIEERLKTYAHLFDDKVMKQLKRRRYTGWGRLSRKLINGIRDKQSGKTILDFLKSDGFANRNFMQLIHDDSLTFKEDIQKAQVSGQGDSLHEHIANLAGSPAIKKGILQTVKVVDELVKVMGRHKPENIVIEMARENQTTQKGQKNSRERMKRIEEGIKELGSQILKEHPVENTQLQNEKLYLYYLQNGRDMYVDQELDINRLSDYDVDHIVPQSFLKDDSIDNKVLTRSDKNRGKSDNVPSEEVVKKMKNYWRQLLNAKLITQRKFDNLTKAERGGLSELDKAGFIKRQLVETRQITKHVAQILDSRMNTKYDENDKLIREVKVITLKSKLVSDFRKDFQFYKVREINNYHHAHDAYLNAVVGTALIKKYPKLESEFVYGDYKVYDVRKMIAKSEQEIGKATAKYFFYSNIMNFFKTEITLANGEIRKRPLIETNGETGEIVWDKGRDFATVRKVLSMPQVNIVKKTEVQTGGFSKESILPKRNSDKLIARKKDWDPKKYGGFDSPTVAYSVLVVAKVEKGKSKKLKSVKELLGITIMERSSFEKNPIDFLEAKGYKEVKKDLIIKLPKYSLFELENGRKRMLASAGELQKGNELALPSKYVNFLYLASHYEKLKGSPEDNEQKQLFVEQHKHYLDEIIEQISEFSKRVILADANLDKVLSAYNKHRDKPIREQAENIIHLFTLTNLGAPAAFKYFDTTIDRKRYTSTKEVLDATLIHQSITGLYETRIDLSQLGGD

B1: S. aureus sgRNA (structured_RNA)
RNA: GUGAAAGUUAAUCGAACUGUGUUUUAGUACUCUGGAAACAGAAUCUACUAAAACAAGGCAAAAUGCCGUGUUUAUCUCGUCAACUUGUUGGCGAGAU
Regarding B1, the equilibrium dissociation constant (Kd) (in general, the concentration at which binding is half-saturated) with SauCas9 came out at 3.4 nM.

B2: S. pyogenes sgRNA (structured_RNA)
RNA: GUGAAAGUUAAUCGAACUGUGUUUUAGAGCUAGAAAUAGCAAGUUAAAAUAAGGCUAGUCCGUUAUCAACUUGAAAAAGUGGCACCGAGUCGGUGCUUUU
For B2, the Kd with SpyCas9 was 0.29 ± 0.08 nM.
